Results: US20250051474A1, “ANTI-CD97 ANTIBODIES AND ANTIBODY-DRUG CONJUGATES” (New York University, priority 2023, published 2025)
Where two headings read alike, the source gives them in different places.

T1: CD97 (ADGRE5) isoform 1 ectodomain, purified and biotinylated (human, UniProt P48960 21-552, limits assumed, biotinylated in vitro using the BirA enzyme)
T1 construct: the whole entry for isoform 1 is named here; also called CD97 isoform 1; Biotinylated CD97 isoform 1
T1 sequence: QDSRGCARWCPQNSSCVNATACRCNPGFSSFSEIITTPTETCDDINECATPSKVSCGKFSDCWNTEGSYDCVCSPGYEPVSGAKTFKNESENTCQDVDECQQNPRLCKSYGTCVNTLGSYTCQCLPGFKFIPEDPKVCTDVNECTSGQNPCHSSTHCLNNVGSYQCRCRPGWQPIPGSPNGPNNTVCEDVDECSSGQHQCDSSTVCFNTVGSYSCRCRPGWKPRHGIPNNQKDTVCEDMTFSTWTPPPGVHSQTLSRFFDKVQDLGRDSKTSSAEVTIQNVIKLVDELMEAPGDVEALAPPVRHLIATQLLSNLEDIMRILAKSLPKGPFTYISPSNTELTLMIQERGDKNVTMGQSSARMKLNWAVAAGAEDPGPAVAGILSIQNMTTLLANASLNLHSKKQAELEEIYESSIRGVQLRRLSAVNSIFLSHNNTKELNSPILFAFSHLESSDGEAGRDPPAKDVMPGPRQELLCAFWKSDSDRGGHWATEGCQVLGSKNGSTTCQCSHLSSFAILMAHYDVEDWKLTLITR

T2: CD97 (ADGRE5) isoform 2 ectodomain, purified and biotinylated (human, UniProt P48960 21-552, biotinylated in vitro using the BirA enzyme)
T2 construct: the whole entry for isoform 2 is named here; also called CD97 isoform 2
T2 sequence: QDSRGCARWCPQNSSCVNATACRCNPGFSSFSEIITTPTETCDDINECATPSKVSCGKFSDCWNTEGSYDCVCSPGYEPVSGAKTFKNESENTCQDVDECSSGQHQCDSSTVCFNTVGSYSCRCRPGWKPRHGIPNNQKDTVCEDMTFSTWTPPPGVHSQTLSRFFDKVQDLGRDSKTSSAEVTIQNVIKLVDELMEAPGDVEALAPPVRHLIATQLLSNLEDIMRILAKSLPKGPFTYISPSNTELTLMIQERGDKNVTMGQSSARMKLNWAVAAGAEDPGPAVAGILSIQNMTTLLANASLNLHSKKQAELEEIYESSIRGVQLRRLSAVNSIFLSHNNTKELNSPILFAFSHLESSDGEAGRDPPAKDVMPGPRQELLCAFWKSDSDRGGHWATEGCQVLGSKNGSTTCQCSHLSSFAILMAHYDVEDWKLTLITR

B1: Fab A1 (Fab, V domains shown)
VH: EVQLVESGGGLVQPGGSLRLSCAASGFTISSSSIHWVRQAPGKGLEWVASIYSYYGSTYYADSVKGRFTISADTSKNTAYLQMNSLRAEDTAVYYCARPVYGQLGYWTQRWSGMDYWGQGTLVTVSS
VL: DIQMTQSPSSLSASVGDRVTITCRASQSVSSAVAWYQQKPGKAPKLLIYSASSLYSGVPSRFSGSRSGTDFTLTISSLQPEDFATYYCQQYSWSSYLITFGQGTKVEIKR
notes: first discovery campaign; also called Antibody Clone A1
B2: Fab B3 (Fab, V domains shown)
VH: EVQLVESGGGLVQPGGSLRLSCAASGFTFSSSSIHWVRQAPGKGLEWVASISPYSGYTSYADSVKGRFTISADTSKNTAYLQMNSLRAEDTAVYYCARAYYYWSHWYMHYVSYPGGMDYWGQGTLVTVSS
VL: DIQMTQSPSSLSASVGDRVTITCRASQSVSSAVAWYQQKPGKAPKLLIYSASSLYSGVPSRFSGSRSGTDFTLTISSLQPEDFATYYCQQLRHYSHLITFGQGTKVEIKR
notes: first discovery campaign; also called Antibody Clone B3
B3: Fab B34 (Fab, V domains shown)
VH: EVQLVESGGGLVQPGGSLRLSCAASGFTVSYSSIHWVRQAPGKGLEWVASIYSSSGYTSYADSVKGRFTISADTSKNTAYLQMNSLRAEDTAVYYCARSYYRYYLSPIYWGSWGMDYWGQGTLVTVSS
VL: DIQMTQSPSSLSASVGDRVTITCRASQSVSSAVAWYQQKPGKAPKLLIYSASSLYSGVPSRFSGSRSGTDFTLTISSLQPEDFATYYCQQSGYYGHLITFGQGTKVEIKR
notes: first discovery campaign; also called Antibody Clone B34
B4: Antibody clone C27, human IgG1 LALA-PG format (antibody, V domains shown)
VH: EVQLVESGGGLVQPGGSLRLSCAASGFTLSSSSIHWVRQAPGKGLEWVASIYSYYGSTYYADSVKGRFTISADTSKNTAYLQMNSLRAEDTAVYYCARYRGNMYYWESWYGSYWALDYWGQGTLVTVSS
VL: DIQMTQSPSSLSASVGDRVTITCRASQSVSSAVAWYQQKPGKAPKLLIYSASSLYSGVPSRFSGSRSGTDFTLTISSLQPEDFATYYCQQSSSSLITFGQGTKVEIKR
B5: Antibody clone 2V10, human IgG1 LALA-PG format (antibody, V domains shown)
VH: EVQLVESGGGLVQPGGSLRLSCAASGFTISSSSIHWVRQAPGKGLEWVAYIYPSSGSTSYADSVKGRFTISADTSKNTAYLQMNSLRAEDTAVYYCARPWYYSTFNKKWWDYQGLDYWGQGTLVTVSS
VL: DIQMTQSPSSLSASVGDRVTITCRASQSVSSAVAWYQQKPGKAPKLLIYSASSLYSGVPSRFSGSRSGTDFTLTISSLQPEDFATYYCQQSWWDPITFGQGTKVEIKR
B6: Fab B25 (Fab, V domains shown)
VH: EVQLVESGGGLVQPGGSLRLSCAASGFTISSSSIHWVRQAPGKGLEWVASISSYSGSTSYADSVKGRFTISADTSKNTAYLQMNSLRAEDTAVYYCARSFFKYYLWYGYHNYWSAIDYWGQGTLVTVSS
VL: DIQMTQSPSSLSASVGDRVTITCRASQSVSSAVAWYQQKPGKAPKLLIYSASSLYSGVPSRFSGSRSGTDFTLTISSLQPEDFATYYCQQSSSSLITFGQGTKVEIKR
notes: first discovery campaign; also called Antibody Clone B25
B7: Fab B20 (Fab, V domains shown)
VH: EVQLVESGGGLVQPGGSLRLSCAASGFTISSSSIHWVRQAPGKGLEWVASISSSSGSTSYADSVKGRFTISADTSKNTAYLQMNSLRAEDTAVYYCARIRHYHWYEIPYWDWAIDYWGQGTLVTVSS
VL: DIQMTQSPSSLSASVGDRVTITCRASQSVSSAVAWYQQKPGKAPKLLIYSASSLYSGVPSRFSGSRSGTDFTLTISSLQPEDFATYYCQQSSSSLITFGQGTKVEIKR
notes: first discovery campaign; also called Antibody Clone B20
B8: Fab 2Z7 (Fab, V domains shown)
VH: EVQLVESGGGLVQPGGSLRLSCAASGFTFSSSSIHWVRQAPGKGLEWVASISSSSGSTSYADSVKGRFTISADTSKNTAYLQMNSLRAEDTAVYYCARSYWERYYYWYYFYQYELGLDYWGQGTLVTVSS
VL: DIQMTQSPSSLSASVGDRVTITCRASQSVSSAVAWYQQKPGKAPKLLIYSASSLYSGVPSRFSGSRSGTDFTLTISSLQPEDFATYYCQQSSSSLITFGQGTKVEIKR
notes: second discovery campaign; biotinylated Fab in the bead assay; also called Antibody Clone 2Z7
B9: Fab B23 (Fab, V domains shown)
VH: EVQLVESGGGLVQPGGSLRLSCAASGFTVSSSSIHWVRQAPGKGLEWVASIYPYSGSTSYADSVKGRFTISADTSKNTAYLQMNSLRAEDTAVYYCARSLGWHRHYNYYFYFYANAIDYWGQGTLVTVSS
VL: DIQMTQSPSSLSASVGDRVTITCRASQSVSSAVAWYQQKPGKAPKLLIYSASSLYSGVPSRFSGSRSGTDFTLTISSLQPEDFATYYCQQYWGSDPITFGQGTKVEIKR
notes: first discovery campaign; also called Antibody Clone B23
B10: Fab 2Z11 (Fab, V domains shown)
VH: EVQLVESGGGLVQPGGSLRLSCAASGFTFYYSSIHWVRQAPGKGLEWVASIYSYSGYTSYADSVKGRFTISADTSKNTAYLQMNSLRAEDTAVYYCARYYISGPYYAYRSYTSYAMDYWGQGTLVTVSS
VL: DIQMTQSPSSLSASVGDRVTITCRASQSVSSAVAWYQQKPGKAPKLLIYSASSLYSGVPSRFSGSRSGTDFTLTISSLQPEDFATYYCQQYWGYSLITFGQGTKVEIKR
notes: second discovery campaign; biotinylated Fab in the bead assay; also called Antibody Clone 2Z11
B11: Fab C14 (Fab, V domains shown)
VH: EVQLVESGGGLVQPGGSLRLSCAASGFTVSSSSIHWVRQAPGKGLEWVASIYSYSGSTSYADSVKGRFTISADTSKNTAYLQMNSLRAEDTAVYYCARSFGWGQSFYYSHYFYITAFDYWGQGTLVTVSS
VL: DIQMTQSPSSLSASVGDRVTITCRASQSVSSAVAWYQQKPGKAPKLLIYSASSLYSGVPSRFSGSRSGTDFTLTISSLQPEDFATYYCQQYWHESLITFGQGTKVEIKR
notes: first discovery campaign; also called Antibody Clone C14
B12: hIgG1_LALA D25 (antibody, V domains shown)
VH: EVQLVESGGGLVQPGGSLRLSCAASGFTFSSSSIHWVRQAPGKGLEWVASISPYYGSTSYADSVKGRFTISADTSKNTAYLQMNSLRAEDTAVYYCARKLEWGMFFWSPYFRALDYWGQGTLVTVSS
VL: DIQMTQSPSSLSASVGDRVTITCRASQSVSSAVAWYQQKPGKAPKLLIYSASSLYSGVPSRFSGSRSGTDFTLTISSLQPEDFATYYCQQSSSSLITFGQGTKVEIK
B13: hIgG1_LALA 2Z3 (antibody, V domains shown)
VH: EVQLVESGGGLVQPGGSLRLSCAASGFTFSSSSIHWVRQAPGKGLEWVASISSSSGSTSYADSVKGRFTISADTSKNTAYLQMNSLRAEDTAVYYCARVLLGKFWYYNYYEYSAMDYWGQGTLVTVSS
VL: DIQMTQSPSSLSASVGDRVTITCRASQSVSSAVAWYQQKPGKAPKLLIYSASSLYSGVPSRFSGSRSGTDFTLTISSLQPEDFATYYCQQSSSSLITFGQGTKVEIK
B14: hIgG1_LALA 2W1 (antibody, V domains shown)
VH: EVQLVESGGGLVQPGGSLRLSCAASGFTVSSSSIHWVRQAPGKGLEWVAYISSSSGSTYYADSVKGRFTISADTSKNTAYLQMNSLRAEDTAVYYCARDFYFGSYYSFGWGLDYWGQGTLVTVSS
VL: DIQMTQSPSSLSASVGDRVTITCRASQSVSSAVAWYQQKPGKAPKLLIYSASSLYSGVPSRFSGSRSGTDFTLTISSLQPEDFATYYCQQDSSYPITFGQGTKVEIK

Columns and labels:
[1] = target: T1, CD97 (ADGRE5) isoform 1 ectodomain, …; experiment: bead-based binding titration (biotinylated antigen on streptavidin beads, flow cytometry), 1:1 fit
[2] = target: T2, CD97 (ADGRE5) isoform 2 ectodomain, …; experiment: as above
[3] = target: Endogenous CD97 on the cell surface (human) (UniProt P48960); experiment: cell-based binding titration on OCI-AML3 cells, flow cytometry, 1:1 fit
[4] = target: T1, CD97 (ADGRE5) isoform 1 ectodomain, …; experiment: bead-based binding titration (biotinylated antigen on streptavidin beads, flow cytometry), 1:1 fit; remark: listed apart in the source
[5] = target: T2, CD97 (ADGRE5) isoform 2 ectodomain, …; experiment: as above; remark: listed apart in the source

Row | Binder | Kd [1] | Kd [2] | Kd [3] | further results
1 | B1 | 1.7 nM | 1.7 nM |  | 
2 | B2 | 5.8 nM | 4.3 nM |  | 
3 | B3 | 2.5 nM | 2.7 nM |  | 
4 | B4 |  |  | 9.6 nM | 
5 | B5 |  |  | 0.3 nM | 
6 | B6 | 5.8 nM | 5.5 nM |  | 
7 | B7 | 2.3 nM | 2.9 nM |  | 
8 | B8 |  |  |  | Kd [4]: 38 nM; Kd [5]: 30 nM
9 | B9 | 0.9 nM | 0.9 nM |  | 
10 | B10 |  |  |  | Kd [4]: 3.4 nM; Kd [5]: 3 nM
11 | B11 | 4.7 nM | 5 nM |  | 
12 | B12 |  |  | 1 nM | 
13 | B13 |  |  | 140 nM | 
14 | B14 |  |  | 25 nM | 
